The text below walks through data of patent US11464853B2, “Amino acid and peptide conjugates and conjugation process” (Auckland UniServices Limited, priority 2016, dated 2022).

What all share (assay type): cell-based
Experiment [1] addresses T1, murine TLR2 (HEK-Blue™-mTLR2 cells) (Mus musculus, UniProt Q9QUN7).
T1 construct: host or cells: HEK-Blue-mTLR2 (HEK cells co-transfected with murine TLR2 and the SEAP reporter)
The experiment is described as follows: TLR2 agonism in HEK-Blue-mTLR2 cells (SEAP reporter). The note with it: for SEAP production / TLR2 agonism in HEK-Blue™-mTLR2: Example 2, FIG. 4A-4C, 10-12 h incubation, absorbance 635 nm; for SEAP production / TLR2 agonism in HEK-Blue™-mTLR2 / TLR2 agonism for mTLR2: result in words; for TLR2 agonism for mTLR2: Example 8, FIG. 6A, dilution series 10^−6 M to 10^−11 M. The protocol: (§1) HEK-Blue™ Detection medium, HEK-Blue™-hTLR2 and HEK-Blue™-mTLR2 were purchased from Invivogen. These HEK-Blue cells were produced by co-transfection of both reporter gene SEAP (secreted embryonic alkaline phosphatase) and either human or murine TLR2, respectively. The SEAP reporter gene is under the control of the IFN-B minimal promoter fused to five AP-1 and five NFkB binding sites. Cells were cultured according to manufacturer's instructions.
(§2) On the day of the assay, TLR agonists 510, 520, 530, 540, 550 or PBS (negative control) were added at the indicated concentrations in 20 μl volume of endotoxin free water in a 96-well plate. HEK-Blue™-hTLR2 or […] were resuspended at ˜2.78×10^5 cells/ml in HEK-Blue™ Detection medium and 180 μl of the cell suspension added to each well (˜5×10^4 cells). Cells were incubated for 10-12 h at 37° C. in 5% CO2. SEAP expression was quantified using an EnSpire plate reader (PerkinElmer) at […]. Data presented as mean+/−SD ABS or mABS (635 nm) values for triplicate wells following background subtraction.
(§3) The TLR2 agonism of the agonists in Table 4 were investigated in HEK-Blue™-mTLR2 (FIG. 6A) and HEK-Blue™-hTLR2 (FIG. 6B) cells by following a procedure analogous to that described in section 2.1 of Example 2 across a 6-log10 dilution series (10^−6 M to 10^−11 M). (R/S)-Pam-1-Cys-NH2 was tested only at 10^−6 and 10^−9 M. Data presented as mean+/−SD absorbance (635 nm) values for triplicate wells following background subtraction, with dotted lines representing absorbance in wells treated with media only.

For experiment [2], the target named is T2, human TLR2 (HEK-Blue™-hTLR2 cells) (Homo sapiens, UniProt O60603).
T2 construct: host or cells: HEK-Blue-hTLR2 (HEK cells co-transfected with human TLR2 and the SEAP reporter)
T2 sequence (O60603 21-784): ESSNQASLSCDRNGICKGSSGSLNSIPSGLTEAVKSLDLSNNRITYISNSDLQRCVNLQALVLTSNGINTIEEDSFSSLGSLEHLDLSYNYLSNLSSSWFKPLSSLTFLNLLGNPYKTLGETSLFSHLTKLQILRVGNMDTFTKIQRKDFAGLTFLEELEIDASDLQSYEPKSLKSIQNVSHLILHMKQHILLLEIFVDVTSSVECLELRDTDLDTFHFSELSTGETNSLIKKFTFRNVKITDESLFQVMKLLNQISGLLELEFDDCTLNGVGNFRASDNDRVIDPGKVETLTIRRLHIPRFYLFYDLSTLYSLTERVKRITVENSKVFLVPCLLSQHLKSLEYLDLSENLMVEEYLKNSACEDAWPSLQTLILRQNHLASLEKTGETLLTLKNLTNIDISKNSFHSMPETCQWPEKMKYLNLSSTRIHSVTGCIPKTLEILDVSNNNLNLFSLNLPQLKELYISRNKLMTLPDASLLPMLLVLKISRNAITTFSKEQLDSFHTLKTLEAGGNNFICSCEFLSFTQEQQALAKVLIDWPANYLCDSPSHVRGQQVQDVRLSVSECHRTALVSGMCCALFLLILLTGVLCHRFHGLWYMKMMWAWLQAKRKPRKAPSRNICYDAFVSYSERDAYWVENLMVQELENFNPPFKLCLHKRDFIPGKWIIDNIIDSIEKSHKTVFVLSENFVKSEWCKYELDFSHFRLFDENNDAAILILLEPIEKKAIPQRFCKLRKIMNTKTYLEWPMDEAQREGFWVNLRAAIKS
The experiment is described as follows: TLR2 agonism in HEK-Blue-hTLR2 cells (SEAP reporter). Conditions: for SEAP production / TLR2 agonism in HEK-Blue™-hTLR2: Example 2, FIG. 4A-4C, 10-12 h incubation, absorbance 635 nm. The procedure:
as §1, §2, §3

Experiment [3] concerns CD8+ T cell clones with TLR2+ HLA-A2+ lymphoblastoid B-cell lines (LCL) as antigen-presenting cells. The experiment is described as follows: Peptide processing and presentation to CD8+ T-cell clones by LCL (CD137 expression, flow cytometry). The note with it: result in words. The protocol: Epstein-Barr Virus-transformed TLR2+ HLA-A2+ lymphoblastoid B-cell lines (LCL) were used as antigen-presenting cells in all peptide processing and presentation assays. LCL were incubated for 16 h in RF10+peptide/construct as indicated at desired concentrations. Untreated LCL were incubated in RF10 only. LCL/construct incubation was performed in 96 well plates (U-bottom, BD Biosciences) or in 48wp (flat bottom, BD Biosciences) depending of the nature of the assay and the numbers of LCL required per treatment. Following incubation, LCL were thoroughly washed with RPMI 1640 to remove unbound construct/peptide.
To enable flow cytometric detection, CD8+ T cell clones were pre-stained with 0.5 μM CellTrace™ Violet (“CTV”) (Life Technologies™) following manufacturer's protocols prior to seeding into APC wells. Loaded, washed LCL and CTV-stained T cell clones were seeded in 96 well plate wells (U-bottom) at a ratio of 4:1 (LCL: T cell) in duplicate (typical numbers of cells used were 1.25×10^4 cells/ml T cells and 5×10^4 cells/ml APC). Following seeding, plates were gently centrifuged (≤300×g, 3 minutes) to allow immediate interaction, and incubated for 26 hours in a standard cell culture incubator.
To detect T cell activation, samples were stained with anti-CD8:AlexaFluor700 and anti-CD137:PE antibodies (both Biolegend). […]
(Flow cytometry measures light scatter and fluorescence of single cells or particles in a stream.)

“Also recorded” adds a separate entry of the source. Where no end group is shown, it is not given here. [ ]: non-standard residue; d: D form.

T1 sequence (Q9QUN7 25-784): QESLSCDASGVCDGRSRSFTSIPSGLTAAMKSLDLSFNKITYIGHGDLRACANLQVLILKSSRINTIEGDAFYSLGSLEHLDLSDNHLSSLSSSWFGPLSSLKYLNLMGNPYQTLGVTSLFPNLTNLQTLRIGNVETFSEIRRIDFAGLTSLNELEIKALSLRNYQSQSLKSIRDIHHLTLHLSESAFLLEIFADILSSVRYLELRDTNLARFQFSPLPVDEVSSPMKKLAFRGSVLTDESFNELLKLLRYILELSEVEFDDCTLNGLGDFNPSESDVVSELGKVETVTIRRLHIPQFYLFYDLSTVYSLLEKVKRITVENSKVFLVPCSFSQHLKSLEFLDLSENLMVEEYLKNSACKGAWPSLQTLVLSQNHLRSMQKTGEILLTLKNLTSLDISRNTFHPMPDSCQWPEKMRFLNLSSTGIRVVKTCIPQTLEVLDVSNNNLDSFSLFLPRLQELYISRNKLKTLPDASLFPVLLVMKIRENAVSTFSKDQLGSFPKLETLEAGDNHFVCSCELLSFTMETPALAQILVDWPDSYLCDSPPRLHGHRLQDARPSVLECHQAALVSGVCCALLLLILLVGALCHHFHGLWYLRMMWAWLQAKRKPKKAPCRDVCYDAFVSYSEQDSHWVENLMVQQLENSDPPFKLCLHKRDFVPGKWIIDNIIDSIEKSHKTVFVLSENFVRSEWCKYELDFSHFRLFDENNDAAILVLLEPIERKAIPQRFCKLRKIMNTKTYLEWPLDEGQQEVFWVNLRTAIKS

For the substance “521: Pam2Cys-SKKKK conjugated to peptide NLVPMVATVK(Ac) (Pam2Cys-SKKKKNLVPMVATVK(Ac)) [compound 521, reference compound]”, the “SEAP production / TLR2 agonism in HEK-Blue™-mTLR2” value in experiment [1] is given as “relative loss of agonism when compared to unconjugated Pam3Cys-SKKKK”. In experiment [2] (result in words), the “SEAP production / TLR2 agonism in HEK-Blue™-hTLR2” value is given as “relative loss of agonism when compared to unconjugated Pam3Cys-SKKKK”.

As for “551: Homo-Pam2Cys(NHAc)-SKKKK conjugated to peptide NLVPMVATVK(Ac) ({homoPam2Cys(NHAc)}-SKKKKNLVPMVATVK(Ac); also: conjugated to lipopeptide, linkage not given here) [compound 551]”, the “SEAP production / TLR2 agonism in HEK-Blue™-mTLR2” value in experiment [1] is “did not result in any loss of agonism, and homoPam2Cys(NHAc)-SKKKK-NLVPMVATVK(Ac) remained a more potent agonist than Pam3Cys-SKKKK, particularly at nM concentrations”. The “SEAP production / TLR2 agonism in HEK-Blue™-hTLR2” value in experiment [2] (result in words) was “did not result in any loss of agonism, and homoPam2Cys(NHAc)-SKKKK-NLVPMVATVK(Ac) remained a more potent agonist than Pam3Cys-SKKKK, particularly at nM concentrations”. Also, the “T-cell clone activation (live clonal cells positive for CD137)” value in experiment [3] (NLV-bearing constructs, FIG. 4D, LCL loaded 16 h, co-culture 26 h) is “comparable T-cell clone activation to NLV-bearing-Pam2Cys-SKKKK (521), and superior T-cell clone activation to NLV-bearing-Pam1Cys-SKKKK (511)”.

Turning to “552: Homo-Pam2Cys(NHAc)-SKKKK conjugated to peptide VPGVLLKEFTVSGNILTIRLTAADHR (homo-Pam2Cys(NHAc)-SKKKK conjugate) [compound 552]”, the “T-cell clone activation (live clonal cells positive for CD137)” value in experiment [3] (VPG-bearing constructs and VPG long peptide, FIG. 4E, epitope EFTVSGNIL) is listed as “superior T-cell clone activation to VPG-bearing-Pam1Cys-SKKKK (512); also recorded: superior to VPG peptide alone (500)”.

In the case of “(R)-Pam2Cys-SKKKK-NH2: enantiopure epimeric TLR agonist of Table 4 ([(R)‑Pam2Cys]SKKKK-NH2; also: (R) epimer, enantiopure) [reference compound]”, the “TLR2 agonism for mTLR2” value in experiment [1] is “increase in NKκB production at 10^−10 and 10^−11 M only”.

“(R)-Pam3Cys: enantiopure epimeric TLR agonist of Table 4 (CSKKKK) [reference compound]”: the “NFκB production maintained at lower concentration than paired (S)-version” value in experiment [1] (mTLR2, (R)- vs (S)-epimer) is at least 10 fold; in experiment [2] (hTLR2, (R)- vs (S)-epimer) it was at least 10 fold.

Take “Pam1Cys-SKKKK-NH2: TLR agonist of Table 4 ([Pam1Cys]SKKKK-NH2) [reference compound]”: the “TLR2 agonism for mTLR2” value in experiment [1] is “no agonism at any concentration for mTLR2”. Also, the “TLR2 agonism for hTLR2” value in experiment [2] (Example 8, FIG. 6B, dilution series 10^−6 M to 10^−11 M, result in words) is given as “agonism for hTLR2 at 10^−6 M but not 10^−9 M”.

“Pam1Cys-SKKKK: known TLR2 agonist, prepared in-house; lipid/linker component Pam1Cys-SKKKK without peptide ([Pam1Cys]SKKKK) [reference compound]”: the “SEAP production / TLR2 agonism in HEK-Blue™-mTLR2” value in experiment [1] is given as “not active in HEK-Blue™-mTLR2 at sub-μM concentrations”.

Take “Pam2Cys-SKKKK: known TLR2 agonist, prepared in-house; lipid/linker component Pam2Cys-SKKKK without peptide ([Pam2Cys]SKKKK) [reference compound]”: the “SEAP production / TLR2 agonism in HEK-Blue™-mTLR2” value in experiment [1] was “most potent agonist tested”. For the same substance, in experiment [2] (result in words), the “SEAP production / TLR2 agonism in HEK-Blue™-hTLR2” value is “most potent agonist tested”.

Take “homoPam2Cys(NH2)-SKKKK: Lipopeptide TLR2 agonist of the invention: Homo-Pam2Cys(NH2) lipid component with SKKKK linker, no epitope peptide ([homoPam2Cys(NH2)]SKKKK)”: the “SEAP production / TLR2 agonism in HEK-Blue™-mTLR2” value in experiment [1] was “equivalent SEAP production to Pam3Cys-SKKKK; also recorded: demonstrably more potent TLR2 agonists than Pam1CYs-SKKKK; also recorded: active in both HEK-Blue™-mTLR2 and -hTLR2 to sub-nM concentrations”. Further, in experiment [2] (result in words), the “SEAP production / TLR2 agonism in HEK-Blue™-hTLR2” value was “comparable production in HEK-Blue™-hTLR2; also recorded: demonstrably more potent TLR2 agonists than Pam1CYs-SKKKK; also recorded: active in both HEK-Blue™-mTLR2 and -hTLR2 to sub-nM concentrations”.

Take “homoPam2Cys(NHAc)-SKKKK: Lipopeptide TLR2 agonist of the invention: Homo-Pam2Cys(NHAc) lipid component with SKKKK linker, no epitope peptide ([homoPam2Cys(NHAc)]SKKKK)”: the “SEAP production / TLR2 agonism in HEK-Blue™-mTLR2” value in experiment [1] was “equivalent SEAP production to the most potent agonist tested (Pam2Cys-SKKKK) at ≥1 nM and comparable production at sub-nM concentrations; also recorded: demonstrably more potent agonist than Pam3Cys-SKKKK or homoPam2Cys(NH2)-SKKKK; also recorded: demonstrably more potent TLR2 agonists than Pam1CYs-SKKKK; also recorded: active in both HEK-Blue™-mTLR2 and -hTLR2 to sub-nM concentrations”. The “SEAP production / TLR2 agonism in HEK-Blue™-hTLR2” value in experiment [2] (result in words) is “equivalent SEAP production to the most potent agonist tested (Pam2Cys-SKKKK) at ≥1 nM and comparable production at sub-nM concentrations; also recorded: demonstrably more potent agonist than Pam3Cys-SKKKK or homoPam2Cys(NH2)-SKKKK; also recorded: demonstrably more potent TLR2 agonists than Pam1CYs-SKKKK; also recorded: active in both HEK-Blue™-mTLR2 and -hTLR2 to sub-nM concentrations”.
